These results are taken from US20240117061A1 (WUHAN YZY BIOPHARMA, published 2024).

For assay [1], the target named is T1, human BCMA on cells (NCI-H929, U266B1, HEK293 huBCMA) (human, UniProt Q02223 1-184).
T1 construct: whole, on cells; also called cell surface BCMA antigen
T1 sequence (looked up): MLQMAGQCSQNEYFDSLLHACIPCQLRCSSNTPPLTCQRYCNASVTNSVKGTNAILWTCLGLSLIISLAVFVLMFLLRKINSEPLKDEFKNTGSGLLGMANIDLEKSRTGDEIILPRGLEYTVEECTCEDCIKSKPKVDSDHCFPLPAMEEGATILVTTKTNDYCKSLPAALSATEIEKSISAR
Put plainly: flow cytometry on U266B1 cells. The procedure:
(§1) The affinities of the 3 mouse antibodies for cell surface BCMA antigen were assessed using FACS. Materials: cell lines NCI-H929, U266B1, HEK293 cynoBCMA and HEK293; PBS buffer; FBS (fetal bovine serum; Gibco, 10099141); PE goat anti-mouse IgG Fc (Biolegend, 405307). Procedures: The cells were resuspended in PBS to prepare cell suspensions containing 200,000 cells. Mouse BCMA antibodies were added to a 96-well plate at 50 μL/well and serially 3-fold diluted from 3000 nM. The plate was incubated for 1 h at 4° C. 150 μL of precooled PBS containing 1% of FBS was added into the 96-well plate after the co-incubation with the primary antibody was finished. The mixtures were centrifuged at 300×g for 5 min and the supernatants were discarded. The above procedures were repeated once. The fluorescent secondary antibody PE goat anti-mouse IgG Fc was added at 80 μL/well. The plate was incubated at 4° C. for 30 min. 150 μL of precooled PBS containing 1% of FBS was added into the 96-well plate after the co-incubation with the secondary antibody was finished. The mixtures were uniformly mixed with a pipette. The 96-well plate was centrifuged at 300×g for 5 min in a plate centrifuge and the supernatants were discarded. The above procedures were repeated once. The cells were resuspended in 100 μL of PBS containing 1% of FBS and detected on a flow cytometry (BD Accuri™ C6).
For orientation: A flow cytometer gives signals particle by particle.

Assay [2] concerns the target T1, human BCMA on cells (NCI-H929, U266B1, …). Briefly: flow cytometry on NCI-H929 cells. On the procedure: as §1
Assay [3] addresses T2, recombinant human BCMA-huFc fusion protein (human).
T2 construct: also called huBCMA-huFc
Put plainly: indirect ELISA, coated antigen. The procedure:
Procedures: Human, mouse and monkey BCMA antigens were prepared into 0.5 μg/mL coating solutions with PBS buffer. The coating solutions were added to a microplate at 100 μL/well and incubated at 4° C. overnight. The residual coating solution was discarded before 3% BSA was added at 300 μL/well, and the plate was blocked for 3 h at room temperature. The microplate was washed once with PBST (PBS containing 0.1% of TWEEN 20) at 300 μL/well. The three mouse BCMA antibodies were serially 3-fold diluted from 10 μg/mL to the 7th concentration. The dilutions were added to the microplate at 100 μL/well. After a 1-h incubation at room temperature, the microplate was washed thrice with PBST at 300 μL/well. The HRP goat anti-mouse IgG antibody was 25,000-fold diluted with 1% BSA-PBST and added at 100 μL/well. After another 1-h incubation at room temperature, the microplate was washed thrice with PBST at 300 μL/well and dried. The TMB chromogenic solution was added at 100 μL/well. After a 5-min reaction at room temperature, 2 M H₂SO₄ was added at 100 μL/well to terminate the reaction. The microplate was placed on a microplate reader (Molecular Devices, SPECTRA Max plus 384) and the absorbance OD450 value was read at 450 nm wavelength.
For orientation: In an ELISA, binding on a coated surface is turned into a signal by an enzyme label.

Assay [4] addresses T3, recombinant human BCMA-his fusion protein (ACRO Biosystem, Cat. No. BCA-H522y) (human, UniProt Q02223 1-54).
T3 construct: extracellular domain; Bought protein; also called huBCMA-his; hu BCMA-his; not shown: His tag
T3 sequence (looked up): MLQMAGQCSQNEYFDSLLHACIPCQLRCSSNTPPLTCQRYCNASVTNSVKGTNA
Briefly: competitive ELISA, coated huBCMA-his, competitor APRIL-biotin.

Assay [5] has as its target T1, human BCMA on cells (NCI-H929, U266B1, …). Briefly: flow cytometry on NCI-H929 cells. The procedure:
Procedures: Preparation of cell suspensions: The cells were resuspended in PBS, and the cell density was adjusted to 2×10⁵ cells/well. Mouse antibodies were added to a 96-well plate at […] and serially 3-fold diluted from 3000 nM. The plate was incubated for 1 h at 4° C. 150 μL of precooled PBS containing 1% of FBS was added into the 96-well plate after the co-incubation with the primary antibody was finished. The mixtures were centrifuged at 300×g for 5 min and the supernatants were discarded. The above procedures were repeated once. The fluorescent secondary antibody PE […] (Biolegend, 409304) was added at 80 μL/well. The plate was incubated at 4° C. for 30 min. 150 μL of precooled PBS containing 1% of FBS was added into the 96-well plate after the co-incubation with the secondary antibody was finished. The mixtures were uniformly mixed with a pipette. The 96-well plate was centrifuged at 300×g for 5 min in a plate centrifuge and the supernatants were removed. The above procedures were repeated once. The cells were resuspended in 100 μL of PBS containing 1% of FBS and detected on a flow cytometry (BD Accuri™ C6).
This is another data set of the same source.

Assay [6] concerns the target T3, recombinant human BCMA-his fusion …. Briefly: ELISA, coated antigen. The procedure:
Procedures: huBCMA-his and cynoBCMA-his antigens were prepared into 0.5 μg/mL coating solutions with PBS (pH 7.4). The coating solutions were added to a microplate at 100 μL/well and incubated at 4° C. overnight. The residual coating solution was discarded before 3% BSA was added at 300 μL/well, and the plate was blocked for 3 h at room temperature. The microplate was washed once with PB ST at 300 The stock humanized monoclonal antibody solutions were serially 3-fold diluted to the 11th concentration. The dilutions were added to the microplate at 100 μL/well. After a 1-h incubation at room temperature, the microplate was washed thrice with PBST at 300 The HRP-conjugated 6*His, His-Tag antibody was 25,000-fold diluted with 1% BSA-PBST and added at 100 After another 1-h incubation at room temperature, the microplate was washed thrice with PB ST at 300 μL/well and dried. The TMB chromogenic solution was added at 100 μL. After a 5-min reaction at room temperature, 2 M H2504 was added at 100 μL/well to terminate the reaction. The microplate was placed on a microplate reader (Molecular Devices, SPECTRA Max plus 384) and the absorbance OD450 value was read at 450 nm wavelength.

Assay [7] has the same target. Briefly: competitive ELISA, coated huBCMA-his, competitor 83A10-biotin.
The target is the same in assay [8]. Briefly: competitive ELISA, coated huBCMA-his, competitor 83A10-biotin, antibody at 7 µg/mL.
Assay [9] has the same target. Put plainly: SPR (Biacore T200), anti-His capture on CM5, 1:1 fit. The procedure: In this example, the antigen-antibody binding kinetics and affinity were determined by the BIACORE method.
Procedures: The anti-histidine antibody (GE, His capture Kit, Cat. No. 28995056) was conjugated to the Sereis S Sensor Chip CMS to capture the test articles, thus acquiring the binding kinetic and affinity data of the antigen, as an analyte, to the test articles. The initial concentration for detecting the binding of the antigen and the test articles was 10 nM. […] The Start up flushing process (1×HBS-EP+buffer) was performed at least thrice before loading to equilibrate the system. The association and dissociation tendencies between the antigen and the test articles were detected. When the dissociation was completed, a regeneration reagent was loaded for regeneration before the detection of the next concentration was performed. After the detection was finished, the data were fitted by using a 1:1 Binding fitting mode in data analysis software (Biacore T200 Evaluation Software).

For assay [10] the target is unchanged. Put plainly: competitive ELISA, coated huBCMA-his, competitor APRIL-biotin. The procedure:
The 96-well microplate was treated with 100 μL of 0.5 μg/mL huBCMA-his in PBS and incubated overnight at 4° C. The plate was then washed thrice with PBS washing buffer containing 0.1% of Tween-20 and blocked with 300 μL of PBS containing 1% of BSA for 2 h. 100 μL of each BCMA antibody was added to the plate. […] The plate was incubated at 37° C. for 1 h, and unbound secondary antibody was washed with PBS washing buffer containing 0.1% of Tween-20. The TMB chromogenic solution was added at 100 μL/well. After a 5-min reaction at room temperature, 2 M H₂SO₄ was added at 100 μL/well to terminate the reaction. The microplate was placed on a microplate reader (Molecular Devices, SPECTRA Max plus 384) and the absorbance OD450 value was read at 450 nm wavelength.
The source holds these as a separate data set.

B1: mouse monoclonal antibody 18F6G3H9 (antibody, V domains shown)
VH: EVQLQQSGPELVKPGTSVEMSCKASGYTFTDYNIHWVRQRHGESLEWLGYINPNNGVTNFNQKFKGKATLTVNKSSSTAYMELRSLTSDDSAVYYCSSGLFDGYPFPYWGQGTLVTVSA
VL: DIVLTQSPASLVVSLGQRATISCRASKSVSTSGYNYIHWYQQKPGQPPKLLIFLASNLKSGVPARFSGGGSGTDFTLNIHPVEEDDAATYFCQHNRELPYTFGGGTKVEIK
notes: detected with anti-mouse IgG; also called Clone 18F6G3H9; BCMA-HC1/BCMA-LC1
The term EC50 denotes the concentration giving half of the maximal effect. As to B1, the EC50 in [1] was 1.6 nM; in assay [2] it was 3.1 nM; in assay [3] it was 0.0705 nM.

B2: humanized antibody hu-mAb2 (VH2+VL2) (antibody, V domains shown)
VH: QVQLVQSGAEVKKPGSSVKVSCKVSGYTFTDHTIHWMKQAPGQGLEWIGYIYPRNGNTKYNEKFKGKATLTADKSTSTAYMELSSLRSEDTAVYFCARYDYDGYFDVWGQGTLVTVSS
VL: DVVMTQTPLSLSVTPGQPASISCRSSQSHVHSDGHTYLHWYLQKPGQSPELLIYKVSNRFSGVPDRFSGSGSGTDFTLKISRVEAEDVGVYFCSQNTHFPWTFGGGTKVEIK
notes: human IgG1/kappa named only as preferred
As usually defined, the IC50 is the point on the concentration scale where inhibition reaches its midpoint. In general, Kd refers to the concentration at which binding is half-saturated. Broadly, the koff is the rate constant with which the complex falls apart. Broadly, the kon is a measure of how fast the partners come together. With B2, the IC50 in assay [4] is 2.76 µg/mL; in assay [7] it was 8.35 µg/mL. The EC50 turned out to be 0.83 nM in assay [5] and 0.00271 nM in assay [6]. The competition in assay [8] amounted to 30%. For the same molecule, in assay [9], the Kd came to 1.15 nM. The koff in [9] was 0.0258 s⁻¹. Also, in assay [9], the kon is 2.24e+07 M⁻¹ s⁻¹.

B3: mouse monoclonal antibody 202E11H10E3 (antibody, V domains shown)
VH: QVQLQQSDAELVKPGTSVKISCKVSGYTFTDHTIHWMKQRPEQGLEWIGYIYPRNGNTKYNEKFKGKATLTADKSSSTAYMHLNSLTSEDSAVYFCARYDYDGYFDVWGTGTTVTVSS
VL: DVVMTQTPLSLPVSLGDQASISCRSSQSHVHSDGHTYLHWYLQKPGQSPELLIYKVSNRFSGVPDRFSGSGSGTDFTLKISRVEAEDLGVYFCSQNTHFPWTFGGGTKLEIK
notes: detected with anti-mouse IgG; also called Clone 202E11H10E3; BCMA-HC2/BCMA-LC2
For B3, the values for the EC50 in assay [1], in assay [2] and in [3] were 1 nM, 1.1 nM and 0.0764 nM, respectively.

B4: soluble human APRIL (ACRO, Cat. No. APL-H5244) (ligand, UniProt O75888 115-250, looked up)
chain: HSVLHLVPINATSKDDSDVTEVMWQPALRRGRGLQAQGYGVRIQDAGVYLLYSQVLFQDVTFTMGQVVSREGQGRQETLFRCIRSMPSHPDRAYNSCYSAGVFHLHQGDILSVIIPRARAKLNLSPHGTFLGFVKL
notes: also called APRIL ligand; APRIL-biotin
Consider B4, for which the IC50 in [4] was 3.7 µg/mL; in assay [10], 0.0247 µg/mL.
